Assay results as given in publication PMC5454382 (Nature Communications, 2017).
Positions count from the first letter of the chain named. Names may count otherwise.

How the values were obtained:
His-tagged LDHA [1] = target: T1, His-tagged LDHA (human, UniProt P00338 1-332); test: pull-down; GST pull-down: GST-tagged protein on glutathione-sepharose resin incubated with His-tagged protein, 4 °C, 3 h; details: both partners purified
His-tagged LDHA [2] = target: T1, His-tagged LDHA; test: pull-down; recombinant proteins from E. coli (Supplementary Fig. 3d,e); which partner was immobilised is not given; details: both partners purified

B1: GST-tagged hCINAP (enzyme, human, UniProt Q9Y3D8 1-172, looked up)
chain: MLLPNILLTGTPGVGKTTLGKELASKSGLKYINVGDLAREEQLYDGYDEEYDCPILDEDRVVDELDNQMREGGVIVDYHGCDFFPERWFHIVFVLRTDTNVLYERLETRGYNEKKLTDNIQCEIFQVLYEEATASYKEEIVHQLPSNKPEELENNVDQILKWIEQWIKDHNS
notes: hCINAP (adenylate kinase 6, AK6), human cDNA, wild type; Vector pGEX4T1 is named in the plasmids section; also called GST-hCINAP; glutathione S-transferase-tagged hCINAP; source: E. coli BL21(DE3), purified
- binding result (His-tagged LDHA [1]): binds

B2: GST-tagged hCINAP (H79G) (enzyme, human, UniProt Q9Y3D8 1-172, looked up)
chain: B1 chain with H79G
notes: hCINAP (adenylate kinase 6, AK6), human cDNA, H79G mutant with impaired adenylate kinase activity; also called H79G mutant hCINAP; source: E. coli BL21(DE3), purified
- binding result (His-tagged LDHA [2]): binds
